Laboratory results: patent publication US20160272977, “DNMT Inhibitors” (New England Biolabs, Inc., published 2016)

T1: GST-DNMT1 fragment 4 (Homo sapiens, UniProt P26358 SEQ:1081-1408)
T1 chain: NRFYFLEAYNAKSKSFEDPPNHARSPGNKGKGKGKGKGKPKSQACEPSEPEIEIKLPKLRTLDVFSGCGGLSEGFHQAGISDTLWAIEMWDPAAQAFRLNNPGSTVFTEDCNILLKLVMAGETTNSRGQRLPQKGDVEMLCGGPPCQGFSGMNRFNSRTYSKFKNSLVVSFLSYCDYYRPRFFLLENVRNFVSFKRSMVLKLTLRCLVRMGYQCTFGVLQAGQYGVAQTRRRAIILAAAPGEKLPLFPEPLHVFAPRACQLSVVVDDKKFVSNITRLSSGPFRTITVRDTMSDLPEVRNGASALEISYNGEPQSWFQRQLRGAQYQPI


Legend:
[1] = target: T1, GST-DNMT1 fragment 4; test: pulldown; most efficient binder of the four; settings: tags: N-terminal GST (pGEX-5x-1); label: 5'-33P in pull-down; predicted to lack stem-loop
Text: (§1) The resulting protein bands are shown in FIG. 1B; asterisks mark the positions of the GST-DNMT1 fusion proteins. GST-DNMT1 fragments were adjusted to the same protein concentration with 50% slurry sepharose beads. RNase inhibitor (New England Biolabs, Ipswich, Mass.) was applied to beads slurry at 40 U/mL immediate before use.
(§2) The GST-DNMT1 fragments exposed to a series of small RNA molecules are depicted in FIG. 1D. The RNA oligos were labelled at the 5′ end with [γ-33P]ATP (PerkinElmer, Waltham, Mass.) using T4 polynucleotide kinase (New England Biolabs, Ipswich, Mass.), and purified with Illustra® ProbeQuant® G-50 Micro Columns (GE Healthcare Life Sciences, Piscataway, N.J.) per the manufacturer's instructions. The binding assay was performed in 50 μL reaction volume containing 20 μL of GST-DNMT1 fragment beads, 5 μL of 5 μM labelled RNA oligo, 5 μL of 10×DNMT1 reaction buffer (New England Biolabs, Ipswich, Mass.) and 20 μL of RNase-free water. After incubation at 37° C. for 10 minutes, beads were washed twice and suspended in 200 μL of PBS. The radioactivity associated with the beads was analyzed by liquid scintillation counting using a Tri-Carb® 2900TR (PerkinElmer, Waltham, Mass.). The amount of RNA oligo bound to beads were calculated by normalizing the scintillation counts of beads to that of 1 pmol labelled RNA oligo.

[2] = target: T2, DNMT1 full-length (Homo sapiens, UniProt P26358 SEQ:1-1616); test: inhibition; competitive vs hemimethylated DNA; settings: tags: baculovirus Sf9
[3] = target: T1, GST-DNMT1 fragment 4; test: pulldown; greater than asCEBPα-1; settings: tags: N-terminal GST (pGEX-5x-1); label: 5'-33P in pull-down
Text: as §1, §2

[4] = target: T2, DNMT1 full-length; test: inhibition; competitive vs hemimethylated DNA; settings: tags: baculovirus Sf9; remark: listed apart in the source
Procedure: Single point biochemistry assays were performed by incubating 10 nM of the DNMT1 enzyme with 1 μM of hemimethylated DNA and 5.328 μM of [³H]AdoMet in the presence of 5.28 μM of folded synthetic RNA oligos. The reaction was done for 15 minutes and radioactivity was counted. [³H]AdoMet incorporation, initial velocity curve and Kᵢ were calculated as described in Example 2.
FIGS. 7C and 7D are representative plots of the inhibitory activity of 5p-5 and 3p-5 at increasing concentrations.

[5] = target: T2, DNMT1 full-length; test: inhibition; mixed inhibition vs AdoMet; settings: tags: baculovirus Sf9
Procedure: For determination of the inhibition pattern and Kᵢ of asCEBPα-2 versus hemimethylated DNA substrate, 20 nM of the DNMT1 enzyme was incubated with 1.328, 0.884, 0.59, 0.394, 0.262, 0.1748 and 0.1168 μM (concentration calculated in terms of hemimethylated CpG) of the 36-bp length hemimethylated DNA substrate with the sequence of (CMeGG•CCG)₁₂ and 5.328 μM of [³H]AdoMet (PerkinElmer, Waltham, Mass.) in the presence of 0, 0.25, 0.5, 1, 2 and 4 μM folded asCEBPα-2 inhibitor RNA in 1×DNMT1 reaction buffer (New England Biolabs, Ipswich, Mass.). The reaction was performed at 37° C. for 30 minutes and DNMT1 enzyme was quenched by flash freezing the reaction mix in a dry ice-methanol bath. The reaction was split into two halves and spotted onto DE81 Whatman® 3658-325 ion exchange filter papers (GE Healthcare Life Sciences, Piscataway, N.J.). The Ki and velocity plots were calculated according to Bacolla, et al., J. Biol. Chem., 274:33011-33019 (1999).
For determination of the inhibition patterns of various test RNAs and Kᵢ for asCEBPα-2 versus AdoMet, reactions were carried out at similar conditions as those described above. […] The nanomolar [³H]CH₃ transferred to hemimethylated DNA substrate was calculated in the same way as in the competitive experiment versus hemimethylated DNA substrate, except that the nanomolar concentration obtained was multiplied by an coefficient of 19.5. […]

[6] = target: T1, GST-DNMT1 fragment 4; test: pulldown; lower than HPE variant; settings: tags: N-terminal GST (pGEX-5x-1); label: 5'-33P in pull-down; stem-loop
Text: as §1, §2

[7] = target: T1, GST-DNMT1 fragment 4; test: pulldown; GST pull-down, 33P RNA, 37 C; lower than HPE variant; settings: tags: N-terminal GST (pGEX-5x-1); label: 5'-33P in pull-down; stem-loop
Text: as §1, §2

[8] = target: T2, DNMT1 full-length; test: inhibition; competitive vs hemimethylated DNA, 37 C; settings: tags: baculovirus Sf9
[9] = label: 5'-33P in pull-down, stem-loop

T2 sequence (P26358 whole entry, the tested form may be a part): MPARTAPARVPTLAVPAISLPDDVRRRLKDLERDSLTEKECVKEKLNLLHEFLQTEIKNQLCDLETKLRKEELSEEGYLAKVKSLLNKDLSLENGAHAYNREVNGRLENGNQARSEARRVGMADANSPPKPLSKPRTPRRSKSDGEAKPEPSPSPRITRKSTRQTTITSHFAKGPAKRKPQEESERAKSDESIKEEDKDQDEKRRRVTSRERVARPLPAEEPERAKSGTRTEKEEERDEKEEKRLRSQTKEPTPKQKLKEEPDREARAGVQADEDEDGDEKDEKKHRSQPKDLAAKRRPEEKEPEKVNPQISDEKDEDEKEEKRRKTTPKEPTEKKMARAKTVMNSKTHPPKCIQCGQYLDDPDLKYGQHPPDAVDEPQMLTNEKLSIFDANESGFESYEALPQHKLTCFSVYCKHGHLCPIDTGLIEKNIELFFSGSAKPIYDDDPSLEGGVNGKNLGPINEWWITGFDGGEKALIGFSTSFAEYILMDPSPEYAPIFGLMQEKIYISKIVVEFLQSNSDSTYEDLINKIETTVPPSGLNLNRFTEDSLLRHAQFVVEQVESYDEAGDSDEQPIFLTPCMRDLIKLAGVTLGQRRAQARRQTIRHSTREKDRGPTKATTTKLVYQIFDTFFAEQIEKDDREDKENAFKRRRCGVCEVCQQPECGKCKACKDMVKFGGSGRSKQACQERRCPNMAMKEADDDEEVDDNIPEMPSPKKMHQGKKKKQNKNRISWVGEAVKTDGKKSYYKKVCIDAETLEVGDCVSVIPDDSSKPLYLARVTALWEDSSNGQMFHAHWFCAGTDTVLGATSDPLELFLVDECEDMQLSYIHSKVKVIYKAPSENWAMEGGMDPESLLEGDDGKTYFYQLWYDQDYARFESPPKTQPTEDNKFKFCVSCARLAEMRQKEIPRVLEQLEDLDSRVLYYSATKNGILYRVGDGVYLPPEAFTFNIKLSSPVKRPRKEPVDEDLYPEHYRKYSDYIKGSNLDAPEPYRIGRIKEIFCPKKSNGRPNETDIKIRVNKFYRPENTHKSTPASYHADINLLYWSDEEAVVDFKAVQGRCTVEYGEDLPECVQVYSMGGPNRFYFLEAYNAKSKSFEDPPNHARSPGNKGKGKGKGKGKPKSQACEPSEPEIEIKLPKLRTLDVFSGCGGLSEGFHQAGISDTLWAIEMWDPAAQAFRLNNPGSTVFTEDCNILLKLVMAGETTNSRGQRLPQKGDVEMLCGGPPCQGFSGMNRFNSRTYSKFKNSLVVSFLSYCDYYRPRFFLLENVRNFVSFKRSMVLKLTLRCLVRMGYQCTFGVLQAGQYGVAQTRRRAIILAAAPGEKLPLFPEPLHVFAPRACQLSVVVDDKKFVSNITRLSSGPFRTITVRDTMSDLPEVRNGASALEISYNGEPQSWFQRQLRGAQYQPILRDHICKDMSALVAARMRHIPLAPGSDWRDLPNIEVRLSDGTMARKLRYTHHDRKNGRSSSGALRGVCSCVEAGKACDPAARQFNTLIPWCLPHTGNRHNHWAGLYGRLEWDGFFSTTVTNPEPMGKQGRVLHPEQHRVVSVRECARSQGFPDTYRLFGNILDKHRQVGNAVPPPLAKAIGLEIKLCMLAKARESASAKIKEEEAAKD

Binder	Ki [2] [nM]	also measured
GACAGUGGAGAGGGGCGGAGCGG (ssRNA) [asCEBPα-2HPE]	–	binding result [1]: binds; Ki ([2]; label: 5'-33P in pull-down, predicted to lack stem-loop): 135 nM
AGGUUGGGAUCGGUUGCAAUGCU (ssRNA) [miR-92a-1-5p]	476	–
ACUCAAAAUGGGGGCGCUUUCC (ssRNA) [miR-373-5p]	298	–
CCGGGAAGCAGGCGGCGUCAGGC (ssRNA) [asCEBPα-1HPE]	–	binding result [3]: binds; Ki ([2]; label: 5'-33P in pull-down): 918 nM
UCGUGAUAGGGGU (ssRNA) [5p-5]	–	Ki [4]: 124 nM
GCCAGUGGCGAGGGGCGGCGCGG (ssRNA) [asCEBPα-2]	–	Ki [5, 9]: 91.7 nM; binding result [6]: binds; Ki [2, 9]: 434 nM
UGAGAACUGAAUUCCAUGGGUU (ssRNA) [miR-146a-5p]	1030	–
CAAAGUGCUUACAGUGCAGGUAG (ssRNA) [miR-17-5p]	317	Ki [5]: 385 nM
AUAAAGCUAGAUAACCGAAAGU (ssRNA) [miR-9-3p]	1600	–
UGUGCAAAUCCAUGCAAAACUGA (ssRNA) [miR-19b-3p]	3320	–
UAGCAGCACGUAAAUAUUGGCG (ssRNA) [miR-16-5p]	463	–
UAUUGCACUUGUCCCGGCCUGU (ssRNA) [miR-92a-3p]	1650	–
UCUUUGGUUAUCUAGCUGUAUGA (ssRNA) [miR-9-5p]	493	–
CCGGGACGCAGGCGGCGUCAGGC (ssRNA) [asCEBPα-1]	–	Ki [2, 9]: 2000 nM; binding result [7]: binds
UAAAGUGCUUAUAGUGCAGGUAG (ssRNA) [miR-20a-5p]	560	–
UCGGAUCCGUCUGAGCUUGGCU (ssRNA) [miR-127-3p]	269	–
UAGCUUAUCAGACUGAUGUUGA (ssRNA) [miR-21-5p]	1290	–
GUCCAGUUUUCCCAGGAAUCCCU (ssRNA) [miR-145-5p]	2460	–
UUAAUGCUAAUCGUGAUAGGGGU (ssRNA) [miR-155-5p]	–	Ki [8]: 27.9 nM
